Experimental data: patent publication US20260234241A1
Like-named read-outs stand apart in the source and are kept apart here.

Experiments:
[1] = molecular target: human BCMA (on cells) (human) (UniProt Q02223); assay: FACS on human BCMA-CHOK1 cells
[2] = molecular target: human BCMA (on cells) (human) (UniProt Q02223); assay: FACS on human BCMA-CHOK1 cells; remark: listed apart in the source
human GPRC5D (human) [3] = molecular target: human GPRC5D (human) (UniProt Q9NZD1); assay: FACS on human GPRC5D-CHOK1 cells
human GPRC5D (human), sequence (Q9NZD1 whole entry): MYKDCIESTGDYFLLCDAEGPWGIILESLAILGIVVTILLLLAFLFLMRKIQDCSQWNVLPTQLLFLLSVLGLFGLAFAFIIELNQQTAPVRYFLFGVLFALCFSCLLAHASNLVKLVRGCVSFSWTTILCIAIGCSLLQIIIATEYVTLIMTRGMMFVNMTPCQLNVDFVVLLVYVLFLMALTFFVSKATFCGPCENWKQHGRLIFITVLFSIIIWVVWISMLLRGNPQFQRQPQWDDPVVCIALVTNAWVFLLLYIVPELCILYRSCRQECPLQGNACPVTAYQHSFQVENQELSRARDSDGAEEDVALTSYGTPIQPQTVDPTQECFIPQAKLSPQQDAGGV

[4] = molecular target: cynomolgus monkey BCMA (on cells) (cynomolgus monkey); assay: FACS on cynomolgus BCMA-CHOK1 cells
cynomolgus monkey BCMA (on cells) (cynomolgus monkey), sequence (Q02223 other isoform, or with tags, fused parts or gaps): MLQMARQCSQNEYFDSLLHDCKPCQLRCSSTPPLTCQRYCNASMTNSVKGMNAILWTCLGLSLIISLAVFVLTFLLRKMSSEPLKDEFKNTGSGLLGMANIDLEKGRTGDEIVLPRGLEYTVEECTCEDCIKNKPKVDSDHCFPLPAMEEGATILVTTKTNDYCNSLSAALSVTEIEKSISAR

[5] = molecular target: cynomolgus monkey BCMA (on cells) (cynomolgus monkey); assay: FACS on cynomolgus BCMA-CHOK1 cells; remark: listed apart in the source
[6] = molecular target: cynomolgus monkey GPRC5D (cynomolgus monkey); assay: FACS on cynomolgus GPRC5D-CHOK1 cells
cynomolgus monkey GPRC5D (cynomolgus monkey), sequence (Q9NZD1 other isoform, or with tags, fused parts or gaps): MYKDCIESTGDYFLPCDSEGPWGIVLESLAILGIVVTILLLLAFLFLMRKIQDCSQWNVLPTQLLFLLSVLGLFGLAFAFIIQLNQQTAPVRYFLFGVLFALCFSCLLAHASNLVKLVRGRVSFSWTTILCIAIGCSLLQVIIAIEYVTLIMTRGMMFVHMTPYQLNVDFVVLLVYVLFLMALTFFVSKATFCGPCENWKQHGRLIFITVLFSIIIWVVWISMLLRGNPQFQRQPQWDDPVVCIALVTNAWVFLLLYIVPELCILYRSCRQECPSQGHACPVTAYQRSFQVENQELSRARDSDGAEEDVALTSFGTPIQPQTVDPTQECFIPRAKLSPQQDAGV

[7] = molecular target: cynomolgus monkey GPRC5D (cynomolgus monkey); assay: FACS on cynomolgus GPRC5D-CHOK1 cells; remark: listed apart in the source
human GPRC5D (human) [8] = molecular target: human GPRC5D (human) (UniProt Q9NZD1); assay: FACS on NCI-H929 cells (GPRC5D-expressing)
[9] = molecular target: cynomolgus monkey CD3 (on cyno PBMCs) (cynomolgus monkey) (UniProt Q95LI5); assay: FACS on cyno PBMCs
cynomolgus monkey CD3 (on cyno PBMCs) (cynomolgus monkey), sequence (Q95LI5 22-198): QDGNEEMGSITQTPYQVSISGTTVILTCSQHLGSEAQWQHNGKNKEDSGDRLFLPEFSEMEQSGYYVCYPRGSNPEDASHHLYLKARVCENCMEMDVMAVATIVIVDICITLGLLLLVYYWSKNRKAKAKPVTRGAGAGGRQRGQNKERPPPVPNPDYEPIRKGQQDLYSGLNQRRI

[10] = molecular target: human CD3 (on Jurkat cells and human PBMCs) (human) (UniProt P07766); assay: FACS on human PBMCs
human CD3 (on Jurkat cells and human PBMCs) (human), sequence (P07766 23-207): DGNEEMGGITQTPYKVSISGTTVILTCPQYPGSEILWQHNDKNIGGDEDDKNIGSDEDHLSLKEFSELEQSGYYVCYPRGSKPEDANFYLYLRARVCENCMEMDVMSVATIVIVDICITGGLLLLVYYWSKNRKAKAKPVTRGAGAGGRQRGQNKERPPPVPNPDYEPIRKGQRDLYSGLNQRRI

[11] = molecular target: human CD3 (on Jurkat cells and human PBMCs) (human) (UniProt P07766); assay: FACS on Jurkat cells
soluble BCMA = assay: cell-based or functional assay
[12] = molecular target: human BCMA (on cells) (human) (UniProt Q02223); assay: FACS on NCI-H929 cells (express BCMA and GPRC5D)
[13] = molecular target: human BCMA (on cells) (human) (UniProt Q02223); assay: FACS on RPMI8226 cells (express BCMA and GPRC5D)
[14] = molecular target: NCI-H929 tumor cells expressing the dual targets BCMA and GPRC5D; assay: FACS on NCI-H929 cells (express BCMA and GPRC5D)
[15] = molecular target: RPMI8226 tumor cells expressing the dual targets BCMA and GPRC5D; assay: FACS on RPMI8226 cells (express BCMA and GPRC5D)

human BCMA (on cells) (human), sequence (Q02223 whole entry): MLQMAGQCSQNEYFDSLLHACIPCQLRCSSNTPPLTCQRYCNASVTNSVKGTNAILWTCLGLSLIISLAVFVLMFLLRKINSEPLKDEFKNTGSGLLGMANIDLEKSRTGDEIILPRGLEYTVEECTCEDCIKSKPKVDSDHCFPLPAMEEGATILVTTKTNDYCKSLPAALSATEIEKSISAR

| Top MFI [1] | Top MFI [2] | Top MFI (human GPRC5D (human) [3]) | Top MFI [4] | Top MFI [5] | Top MFI [6] | Top MFI [7] | Top MFI (human GPRC5D (human) [8]) | Top MFI [9] | Top MFI [10] | Top MFI [11] | Fold change of TDCC EC50 on NCI-H929 cells in the presence of 2500 ng/ml soluble BCMA (soluble BCMA) [fold] | Ratio (EC50) of TDCC on NCI-H929 cells, 2.5 ug/ml against 0 ug/ml soluble BCMA (soluble BCMA) [fold] | fold change of the TDCC EC50 on NCI-H929 cells in the presence of 2500 ng/ml soluble BCMA (soluble BCMA) [fold] | Top MFI [12] | Top MFI [13] | Top MFI [14] | Top MFI [15] | Substance |
| --- | --- | --- | --- | --- | --- | --- | --- | --- | --- | --- | --- | --- | --- | --- | --- | --- | --- | --- |
| 89.1 | 232 | 36 | 82.6 | 382 | 85 | 1840 | 178 | – | – | – | – | – | – | – | – | – | – | IgG1 AA (antibody) |
| 2280 | – | 160 | 1770 | – | – | – | – | 2060 | 672 | 825 | 25 | 21 | 25 | 669 | 169 | – | – | Teclistamab analogue (BCMA/CD3) (bispecific antibody) |
| 119 | – | 100 | – | – | – | – | – | 93.3 | 96.1 | 77.6 | – | – | – | – | – | 104 | 112 | hIgG1 LALA isotype (antibody) |
